According to patent US20240067758A1 (UCB, published 2024):

T1: Human IL22 (human, UniProt Q9GZX6 34-179)
T1 construct: IL22 of the Biacore and cell assays
T1 sequence: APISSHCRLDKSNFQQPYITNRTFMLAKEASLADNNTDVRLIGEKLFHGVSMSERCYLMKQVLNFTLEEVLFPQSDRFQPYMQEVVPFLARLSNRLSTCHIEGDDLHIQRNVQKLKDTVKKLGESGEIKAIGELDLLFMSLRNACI


Biological target: T1, Human IL22
Assay: SPR (Biacore); Fab variant, human IL22

Row | Binder | Kd
1 | 11041gL1 C91S gH1 D54E (Fab, V domains shown, V-regions only; also called 11041gL2gH3) VH: EVQLVESGGGLVQPGGSLRLSCAVSGFSLSSYAMIWVRQAPGKGLEWIGIIDIEGSTYYASWAKGRFTISRDSSKNTVYLQMNSLRAEDTAVYYCARDRFVGVDIFDPWGQGTLVTVSS VL: AVVLTQSPSSLSASVGDRVTITCQASEDIYTNLAWYQQKPGKAPKLLIYWASTLASGVPSRFSGSGSGTDFTLTISSLQPEDFATYYCQASVYGNSADSRYTFGGGTKVEIK | 28.1 pM
2 | 11041gL1 C91S S96AgH17 (Fab, V domains shown, V-regions only; also called 11041gL10gH17; gH17 = gH11 D54E) VH: EVQLVESGGGLVQPGGSLRLSCAVSGFSLSSYAMIWVRQAPGKGLEWVGIIDIEGSTYYASWAKGRFTISRDNSKNTLYLQMNSLRAEDTAVYYCARDRFVGVDIFDPWGQGTLVTVSS VL: AVVLTQSPSSLSASVGDRVTITCQASEDIYTNLAWYQQKPGKAPKLLIYWASTLASGVPSRFSGSGSGTDFTLTISSLQPEDFATYYCQASVYGNAADSRYTFGGGTKVEIK | 39.8 pM
3 | 11041gL1gH1 D54E (Fab, V domains shown, V-regions only; also called 11041gL1gH3) VH: EVQLVESGGGLVQPGGSLRLSCAVSGFSLSSYAMIWVRQAPGKGLEWIGIIDIEGSTYYASWAKGRFTISRDSSKNTVYLQMNSLRAEDTAVYYCARDRFVGVDIFDPWGQGTLVTVSS VL: AVVLTQSPSSLSASVGDRVTITCQASEDIYTNLAWYQQKPGKAPKLLIYWASTLASGVPSRFSGSGSGTDFTLTISSLQPEDFATYYCQACVYGNSADSRYTFGGGTKVEIK | 166 pM
4 | 11041gL6 C91S gH8 D54E (Fab, V domains shown, V-regions only; also called 11041gL11gH15) VH: EVQLVESGGGLVQPGGSLRLSCAVSGFSLSSYAMIWVRQAPGKGLEWIGIIDIEGSTYYASWAKGRFTISRDSSKNTLYLQMNSLRAEDTAVYYCARDRFVGVDIFDPWGQGTLVTVSS VL: AVQLTQSPSSLSASVGDRVTITCQASEDIYTNLAWYQQKPGKAPKLLIYWASTLASGVPSRFSGSGSGTDFTLTISSLQPEDFATYYCQASVYGNSADSRYTFGGGTKVEIK | 106 pM
5 | 11041gL1gH1 (Fab, V domains shown, Human Fab format (human kappa, human gamma-1 CH1); V-regions only) VH: EVQLVESGGGLVQPGGSLRLSCAVSGFSLSSYAMIWVRQAPGKGLEWIGIIDIDGSTYYASWAKGRFTISRDSSKNTVYLQMNSLRAEDTAVYYCARDRFVGVDIFDPWGQGTLVTVSS VL: AVVLTQSPSSLSASVGDRVTITCQASEDIYTNLAWYQQKPGKAPKLLIYWASTLASGVPSRFSGSGSGTDFTLTISSLQPEDFATYYCQACVYGNSADSRYTFGGGTKVEIK | 642 pM
6 | 11041gL1 C91S gH9 (Fab, V domains shown, V-regions only; also called 11041gL2gH9) VH: EVQLVESGGGLVQPGGSLRLSCAASGFSLSSYAMIWVRQAPGKGLEWIGIIDIDGSTYYASWAKGRFTISRDSSKNTVYLQMNSLRAEDTAVYYCARDRFVGVDIFDPWGQGTLVTVSS VL: AVVLTQSPSSLSASVGDRVTITCQASEDIYTNLAWYQQKPGKAPKLLIYWASTLASGVPSRFSGSGSGTDFTLTISSLQPEDFATYYCQASVYGNSADSRYTFGGGTKVEIK | 11.4 pM
7 | 11041gL7 C91S S96A gH11 D54E (Fab, V domains shown, V-regions only; also called 11041gL14gH17) VH: EVQLVESGGGLVQPGGSLRLSCAVSGFSLSSYAMIWVRQAPGKGLEWVGIIDIEGSTYYASWAKGRFTISRDNSKNTLYLQMNSLRAEDTAVYYCARDRFVGVDIFDPWGQGTLVTVSS VL: AIQLTQSPSSLSASVGDRVTITCQASEDIYTNLAWYQQKPGKAPKLLIYWASTLASGVPSRFSGSGSGTDFTLTISSLQPEDFATYYCQASVYGNAADSRYTFGGGTKVEIK | 61.7 pM
8 | 11041gL6 C91S gH12 D54E (Fab, V domains shown, V-regions only; also called 11041gL11gH18) VH: EVQLVESGGGLVQPGGSLRLSCAVSGFSLSSYAMIWVRQAPGKGLEWISIIDIEGSTYYASWAKGRFTISRDNSKNTLYLQMNSLRAEDTAVYYCARDRFVGVDIFDPWGQGTLVTVSS VL: AVQLTQSPSSLSASVGDRVTITCQASEDIYTNLAWYQQKPGKAPKLLIYWASTLASGVPSRFSGSGSGTDFTLTISSLQPEDFATYYCQASVYGNSADSRYTFGGGTKVEIK | 44.4 pM
9 | 11041gL7 C91S S96A gH12 D54E (Fab, V domains shown, V-regions only; also called 11041gL14gH18) VH: EVQLVESGGGLVQPGGSLRLSCAVSGFSLSSYAMIWVRQAPGKGLEWISIIDIEGSTYYASWAKGRFTISRDNSKNTLYLQMNSLRAEDTAVYYCARDRFVGVDIFDPWGQGTLVTVSS VL: AIQLTQSPSSLSASVGDRVTITCQASEDIYTNLAWYQQKPGKAPKLLIYWASTLASGVPSRFSGSGSGTDFTLTISSLQPEDFATYYCQASVYGNAADSRYTFGGGTKVEIK | 67.6 pM
10 | 11041gL1 N95D gH1 (Fab, V domains shown, V-regions only; also called 11041gL8gH1) VH: EVQLVESGGGLVQPGGSLRLSCAVSGFSLSSYAMIWVRQAPGKGLEWIGIIDIDGSTYYASWAKGRFTISRDSSKNTVYLQMNSLRAEDTAVYYCARDRFVGVDIFDPWGQGTLVTVSS VL: AVVLTQSPSSLSASVGDRVTITCQASEDIYTNLAWYQQKPGKAPKLLIYWASTLASGVPSRFSGSGSGTDFTLTISSLQPEDFATYYCQACVYGDSADSRYTFGGGTKVEIK | 129 pM
11 | 11041gL1gH1 G55A (Fab, V domains shown, V-regions only; also called 11041gL1gH2) VH: EVQLVESGGGLVQPGGSLRLSCAVSGFSLSSYAMIWVRQAPGKGLEWIGIIDIDASTYYASWAKGRFTISRDSSKNTVYLQMNSLRAEDTAVYYCARDRFVGVDIFDPWGQGTLVTVSS VL: AVVLTQSPSSLSASVGDRVTITCQASEDIYTNLAWYQQKPGKAPKLLIYWASTLASGVPSRFSGSGSGTDFTLTISSLQPEDFATYYCQACVYGNSADSRYTFGGGTKVEIK | 627 pM

The remaining binders from weak to strong by Kd, led by results:

Row | Kd | Binder
12 | 657 pM | 11041gL1gH1 D107E (Fab, V domains shown, V-regions only; also called 11041gL1gH4) VH: EVQLVESGGGLVQPGGSLRLSCAVSGFSLSSYAMIWVRQAPGKGLEWIGIIDIDGSTYYASWAKGRFTISRDSSKNTVYLQMNSLRAEDTAVYYCARDRFVGVDIFEPWGQGTLVTVSS VL: AVVLTQSPSSLSASVGDRVTITCQASEDIYTNLAWYQQKPGKAPKLLIYWASTLASGVPSRFSGSGSGTDFTLTISSLQPEDFATYYCQACVYGNSADSRYTFGGGTKVEIK
13 | 378 pM | 11041gL1gH5 (Fab, V domains shown, V-regions only) VH: EVQLVESGGGLVQPGGSLRLSCAVSGFSLSSYAMIWVRQAPGKGLEWIGIIDIDGSTYYASWAKGRFTISRDNSKNTVYLQMNSLRAEDTAVYYCARDRFVGVDIFDPWGQGTLVTVSS VL: AVVLTQSPSSLSASVGDRVTITCQASEDIYTNLAWYQQKPGKAPKLLIYWASTLASGVPSRFSGSGSGTDFTLTISSLQPEDFATYYCQACVYGNSADSRYTFGGGTKVEIK
14 | 369 pM | 11041gL6gH1 (Fab, V domains shown, V-regions only) VH: EVQLVESGGGLVQPGGSLRLSCAVSGFSLSSYAMIWVRQAPGKGLEWIGIIDIDGSTYYASWAKGRFTISRDSSKNTVYLQMNSLRAEDTAVYYCARDRFVGVDIFDPWGQGTLVTVSS VL: AVQLTQSPSSLSASVGDRVTITCQASEDIYTNLAWYQQKPGKAPKLLIYWASTLASGVPSRFSGSGSGTDFTLTISSLQPEDFATYYCQACVYGNSADSRYTFGGGTKVEIK
15 | 274 pM | 11041gL1gH8 (Fab, V domains shown, V-regions only) VH: EVQLVESGGGLVQPGGSLRLSCAVSGFSLSSYAMIWVRQAPGKGLEWIGIIDIDGSTYYASWAKGRFTISRDSSKNTLYLQMNSLRAEDTAVYYCARDRFVGVDIFDPWGQGTLVTVSS VL: AVVLTQSPSSLSASVGDRVTITCQASEDIYTNLAWYQQKPGKAPKLLIYWASTLASGVPSRFSGSGSGTDFTLTISSLQPEDFATYYCQACVYGNSADSRYTFGGGTKVEIK
16 | 200 pM | 11041gL1 S96A gH1 (Fab, V domains shown, V-regions only; also called 11041gL9gH1) VH: EVQLVESGGGLVQPGGSLRLSCAVSGFSLSSYAMIWVRQAPGKGLEWIGIIDIDGSTYYASWAKGRFTISRDSSKNTVYLQMNSLRAEDTAVYYCARDRFVGVDIFDPWGQGTLVTVSS VL: AVVLTQSPSSLSASVGDRVTITCQASEDIYTNLAWYQQKPGKAPKLLIYWASTLASGVPSRFSGSGSGTDFTLTISSLQPEDFATYYCQACVYGNAADSRYTFGGGTKVEIK
17 | 104 pM | 11041gL7 C91S S96A gH8 D54E (Fab, V domains shown, V-regions only; also called 11041gL14gH15) VH: EVQLVESGGGLVQPGGSLRLSCAVSGFSLSSYAMIWVRQAPGKGLEWIGIIDIEGSTYYASWAKGRFTISRDSSKNTLYLQMNSLRAEDTAVYYCARDRFVGVDIFDPWGQGTLVTVSS VL: AIQLTQSPSSLSASVGDRVTITCQASEDIYTNLAWYQQKPGKAPKLLIYWASTLASGVPSRFSGSGSGTDFTLTISSLQPEDFATYYCQASVYGNAADSRYTFGGGTKVEIK
18 | 88.8 pM | 11041gL1 S96A gH1 D54E (Fab, V domains shown, V-regions only; also called 11041gL9gH3) VH: EVQLVESGGGLVQPGGSLRLSCAVSGFSLSSYAMIWVRQAPGKGLEWIGIIDIEGSTYYASWAKGRFTISRDSSKNTVYLQMNSLRAEDTAVYYCARDRFVGVDIFDPWGQGTLVTVSS VL: AVVLTQSPSSLSASVGDRVTITCQASEDIYTNLAWYQQKPGKAPKLLIYWASTLASGVPSRFSGSGSGTDFTLTISSLQPEDFATYYCQACVYGNAADSRYTFGGGTKVEIK
19 | 79 pM | 11041gL1 C91S S96AgH15 (Fab, V domains shown, V-regions only; also called 11041gL10gH15; gH15 = gH8 D54E) VH: EVQLVESGGGLVQPGGSLRLSCAVSGFSLSSYAMIWVRQAPGKGLEWIGIIDIEGSTYYASWAKGRFTISRDSSKNTLYLQMNSLRAEDTAVYYCARDRFVGVDIFDPWGQGTLVTVSS VL: AVVLTQSPSSLSASVGDRVTITCQASEDIYTNLAWYQQKPGKAPKLLIYWASTLASGVPSRFSGSGSGTDFTLTISSLQPEDFATYYCQASVYGNAADSRYTFGGGTKVEIK
20 | 51.6 pM | 11041gL6 C91S gH11 D54E (Fab, V domains shown, V-regions only; also called 11041gL11gH17) VH: EVQLVESGGGLVQPGGSLRLSCAVSGFSLSSYAMIWVRQAPGKGLEWVGIIDIEGSTYYASWAKGRFTISRDNSKNTLYLQMNSLRAEDTAVYYCARDRFVGVDIFDPWGQGTLVTVSS VL: AVQLTQSPSSLSASVGDRVTITCQASEDIYTNLAWYQQKPGKAPKLLIYWASTLASGVPSRFSGSGSGTDFTLTISSLQPEDFATYYCQASVYGNSADSRYTFGGGTKVEIK
21 | 45.4 pM | 11041gL1 C91S S96AgH18 (Fab, V domains shown, V-regions only; also called 11041gL10gH18; gH18 = gH12 D54E) VH: EVQLVESGGGLVQPGGSLRLSCAVSGFSLSSYAMIWVRQAPGKGLEWISIIDIEGSTYYASWAKGRFTISRDNSKNTLYLQMNSLRAEDTAVYYCARDRFVGVDIFDPWGQGTLVTVSS VL: AVVLTQSPSSLSASVGDRVTITCQASEDIYTNLAWYQQKPGKAPKLLIYWASTLASGVPSRFSGSGSGTDFTLTISSLQPEDFATYYCQASVYGNAADSRYTFGGGTKVEIK
